The record followed here is patent US20130011427A1 (priority 2009, published 2013).

Experiment [1] has as its system HLA-DR3 (DRB1*0301) Tg mice, CD8-depleted splenocytes. It counts as cell-based, mouse.
Experiment [2] deals with HLA-A24/huCD8α (HLA-A*2402) Tg mice, CD4-depleted splenocytes. It counts as cell-based, mouse.
The subject of experiment [3] is HLA-DR4/huCD4 (DRB1*0401) Tg mice, CD8-depleted splenocytes. It is filed as cell-based, mouse.
Experiment [4] deals with HLA-DR4 (HLA-DRA*0101 / HLA-DRB1*0401) (human). The experiment in a line: cell-based or functional assay.
Experiment [5] has as its target HLA-DR2 (chimeric HLA-DRA1*0101/DRB1*1501 with I-E domains) (human; murine) (UniProt Q8BHN5). The experiment in a line: cell-based or functional assay.
UniProt Q8BHN5, sequence (Q8BHN5 whole entry, stated change not applied): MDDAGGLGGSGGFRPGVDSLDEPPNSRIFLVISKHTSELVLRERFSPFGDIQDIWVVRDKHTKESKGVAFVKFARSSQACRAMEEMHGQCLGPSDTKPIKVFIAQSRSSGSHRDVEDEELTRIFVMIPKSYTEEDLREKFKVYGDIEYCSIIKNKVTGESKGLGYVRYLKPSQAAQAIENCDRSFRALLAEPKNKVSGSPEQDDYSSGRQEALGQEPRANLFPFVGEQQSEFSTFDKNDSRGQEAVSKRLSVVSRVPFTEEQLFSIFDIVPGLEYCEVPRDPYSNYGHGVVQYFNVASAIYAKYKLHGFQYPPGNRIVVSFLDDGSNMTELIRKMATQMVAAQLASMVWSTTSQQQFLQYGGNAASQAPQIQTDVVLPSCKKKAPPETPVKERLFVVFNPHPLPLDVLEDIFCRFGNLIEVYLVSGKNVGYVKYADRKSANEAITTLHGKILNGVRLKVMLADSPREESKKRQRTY
Experiment [6] deals with HLA-DR3 (HLA-DRA*0101 / HLA-DRB1*0301) (human). The experiment in a line: cell-based or functional assay.
Experiment [7] addresses HLA-A2.1 (HHD monochain) (human; murine). The experiment in a line: cell-based or functional assay.
For experiment [8], the system named is HLA-A2.1 (HLA-A*0201) Tg mice, CD4-depleted splenocytes. It counts as cell-based, mouse.
Experiment [9] has as its system HLA-DR2 (DRB1*1501) Tg mice, CD8-depleted splenocytes. It is filed as cell-based, mouse.

Take TWAENIQVAINQVRAII [NS5 863-879]: in experiment [1], the “T cell activation of HLA transgenic mice (SFC/10^6) IFN-γ ELISpot, DR3” value (“T cell activation of HLA transgenic mice … DR3” for short) is on record as 121 ± 2 SFC/10^6. In addition, in experiment [2], the “T cell activation of HLA transgenic mice (SFC/10^6) IFN-γ ELISpot, A24” value (from here on “T cell activation of HLA transgenic mice … A24”) turned out to be 79 ± 11 SFC/10^6. The “T cell activation of HLA transgenic mice (SFC/10^6) IFN-γ ELISpot, DR4” value (from here on “T cell activation of HLA transgenic mice … DR4”) in experiment [3] was determined as 33 ± 1 SFC/10^6.

Turning to WNV prM 121-138 peptide, the IFN-γ ELISpot (SFC/10^6) in experiment [4] was found to be 56 SFC/10^6; in experiment [5], 130 SFC/10^6.

WNV E 54-71 peptide gave an IFN-γ ELISpot (SFC/10^6) in experiment [4] of 205 SFC/10^6.

Regarding WNV NS5 605-622 peptide, the IFN-γ ELISpot (SFC/10^6) in experiment [4] came to 240 SFC/10^6; in experiment [5], 556 SFC/10^6.

For the substance WNV E 398-415 peptide, the IFN-γ ELISpot (SFC/10^6) stood at 88 SFC/10^6 in experiment [6] and 168 SFC/10^6 in [5].

Take TWTLIKNMEKPGLKR [NS4b 241-255]: the “T cell activation of HLA transgenic mice … A24” value in experiment [2] turned out to be 53 ± 32 SFC/10^6.

Take WNV NS3 487-501 peptide: the IFN-γ ELISpot (SFC/10^6) was found to be 431 SFC/10^6 in experiment [6] and 308 SFC/10^6 in experiment [7].

For the substance WNV E 434-451 peptide, the IFN-γ ELISpot (SFC/10^6) in [6] was 79 SFC/10^6; in [5], 116 SFC/10^6.

In experiment [4], WNV NS1 205-221 peptide gave an IFN-γ ELISpot (SFC/10^6) of 61 SFC/10^6.

As for WNV NS3 228-243 peptide, the IFN-γ ELISpot (SFC/10^6) in experiment [4] is 46 SFC/10^6.

Consider ILPSVVGFWITLQYTKR [NS2b 115-131], for which the “T cell activation of HLA transgenic mice (SFC/10^6) IFN-γ ELISpot, A2” value in experiment [8] is on record as 108 ± 60 SFC/10^6. The “T cell activation of HLA transgenic mice … A24” value in experiment [2] turned out to be 56 ± 2 SFC/10^6.

Consider WNV NS1 305-322 peptide, for which the IFN-γ ELISpot (SFC/10^6) in [6] came out at 557 SFC/10^6; in [4], 109 SFC/10^6.

With LITAAAVTLWENGASSVW [NS4b 201-218], the “T cell activation of HLA transgenic mice … DR3” value in experiment [1] is 99 ± 26 SFC/10^6. Moreover, the “T cell activation of HLA transgenic mice … DR4” value in [3] is reported as 73 ± 8 SFC/10^6.

Take WNV NS4b 38-55 peptide: the IFN-γ ELISpot (SFC/10^6) turned out to be 67 SFC/10^6 in [6] and 57 SFC/10^6 in experiment [5].

As to FACSTKAIGRTILKENIK [E 119-136], the “T cell activation of HLA transgenic mice … A24” value in experiment [2] is reported as 179 ± 136 SFC/10^6.

Take DTACLAKSYAQMWLLLYF [NS5 755-772]: in experiment [2], the “T cell activation of HLA transgenic mice … A24” value worked out at 132 ± 62 SFC/10^6.

On to WNV NS2a 65-81 peptide, for which, in [4], the IFN-γ ELISpot (SFC/10^6) is 60 SFC/10^6.

WNV NS2b 1-18 peptide displayed an IFN-γ ELISpot (SFC/10^6) in experiment [4] of 104 SFC/10^6.

In experiment [4], WNV NS1 270-287 peptide had an IFN-γ ELISpot (SFC/10^6) of 54 SFC/10^6.

For WNV E 426-443 peptide, the IFN-γ ELISpot (SFC/10^6) in [6] is 83 SFC/10^6.

On to WNV E 127-144 peptide, for which the IFN-γ ELISpot (SFC/10^6) in experiment [6] was 198 SFC/10^6; in [5] it was 120 SFC/10^6.

In turn, WNV NS3 6-23 peptide displayed an IFN-γ ELISpot (SFC/10^6) in experiment [4] of 43 SFC/10^6.

As for WNV prM 152-167 peptide, the IFN-γ ELISpot (SFC/10^6) in experiment [6] turned out to be 90 SFC/10^6; in experiment [4], 117 SFC/10^6; in [7], 318 SFC/10^6; in experiment [5] it was 269 SFC/10^6.

As for ILESDLIIPVTLAGPR [NS1 236-251], the “T cell activation of HLA transgenic mice (SFC/10^6) IFN-γ ELISpot, A2” value in experiment [8] turned out to be 78 ± 42 SFC/10^6. Also, the “T cell activation of HLA transgenic mice … A24” value in [2] stood at 43 ± 18 SFC/10^6.

As to DYINTSLTSINVQASALF [NS4b 63-80], the “T cell activation of HLA transgenic mice … DR3” value in experiment [1] turned out to be 386 ± 60 SFC/10^6. Moreover, the “T cell activation of HLA transgenic mice … DR4” value in [3] was 92 ± 13 SFC/10^6.

The substance WNV NS4b 101-118 peptide came in with an IFN-γ ELISpot (SFC/10^6) in [4] of 134 SFC/10^6.

For the substance WNV NS5 115-132 peptide, the IFN-γ ELISpot (SFC/10^6) in experiment [6] amounted to 79 SFC/10^6.

Take WNV NS1 10-27 peptide: the IFN-γ ELISpot (SFC/10^6) in experiment [4] came to 63 SFC/10^6.

As to WNV NS3 492-509 peptide, the IFN-γ ELISpot (SFC/10^6) in experiment [6] came out at 216 SFC/10^6.

On to WNV NS4a 15-31 peptide, for which the IFN-γ ELISpot (SFC/10^6) is 187 SFC/10^6 in experiment [4] and 278 SFC/10^6 in experiment [5].

In the case of TLMEFEEPHATKQSVIAL [E 238-255], in experiment [2], the “T cell activation of HLA transgenic mice … A24” value came out at 122 ± 108 SFC/10^6.

Regarding RVVFVVLLLLVAPAYS [prM 152-167], the “T cell activation of HLA transgenic mice (SFC/10^6) IFN-γ ELISpot, A2” value in experiment [8] stood at 318 ± 179 SFC/10^6. The “T cell activation of HLA transgenic mice … DR3” value in experiment [1] was determined as 90 ± 47 SFC/10^6. In experiment [3], the “T cell activation of HLA transgenic mice … DR4” value was 117 ± 10 SFC/10^6. Moreover, in experiment [9], the “T cell activation of HLA transgenic mice (SFC/10^6) IFN-γ ELISpot, DR2” value turned out to be 269 ± 30 SFC/10^6.

Turning to WNV NS4b 201-218 peptide, the results for the IFN-γ ELISpot (SFC/10^6) in [6] and in experiment [4] were 99 SFC/10^6 and 73 SFC/10^6, respectively.

Regarding PTIDVKMMNMEAANLAEV [E 39-56], the “T cell activation of HLA transgenic mice … A24” value in [2] came out at 137 ± 124 SFC/10^6.

In the case of WNV NS4b 63-80 peptide, the IFN-γ ELISpot (SFC/10^6) in [6] was 386 SFC/10^6; in experiment [4], 92 SFC/10^6.

WNV NS4a 1-17 peptide gave an IFN-γ ELISpot (SFC/10^6) in [6] of 132 SFC/10^6.
